This series is described as follows: protease stability score; higher = more stable; yeast display proteolysis, trypsin and chymotrypsin.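 Note: log10 excess protease needed over predicted unfolded state with 0 meaning unfolded.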

For the sequence “EEEVVKEVTKAAKTGNFEKLLRLADPNVEMRIGDKTFHGRTELKDALRDIKQNADHIELKSLDSHNGRLEVDLVVNVNGKDVRFILRVSVHNGRITQMSVESRDTDFKKVLDEMLG”, the protease stability score was 1.91.

“EEHDERTMHRLVETNDWETISRNADKDVKFQVGNKSYHGKEEFTEVLRKITKRADHIEYRSFNSHNGRIDVDYVFVVNGKEVKVFVQIQVHNGRIKHMRMRATNPDQQQELVDQLS” came in with a protease stability score of 1.44.

Consider “EEHIKEVLDRVREAWRKNNPDDLKRNFDPNARFNIGNKRYHGMEHFVEDVARLLHEIHVEIHYHHITFDGNEARFSYDAVFNVDGRPIRDSMSRRVILHNGKIVDMKVDVDPKELDKKLK”, for which the protease stability score was -0.093.

Consider “EEHLESLVRNLEEAVKKGNPEEMKKNLDKNARMVYGDKRLHGMSDILTEIEKRREHMRLEHEVKSIDNQGNKAKVTARLDVNVNGHPVDVDFIIHIKVHNGHVLEIVYQLPPEAHEKLKT”, for which the protease stability score is -0.278.

The sequence “EEHLKHVVEELWKAMQTGDEDKIRRNADPNAHFSIGDKVIQGRERFAQDVRQTYDEIRVDIKIHRMNIQGEKVKVRFTFEQKVNGKPRSDENSAENTLHNGKVEEMNITIDPDKQRKFES” registered a protease stability score of -0.43.

On to “EEHLKQTFKEYMENYRTGNEEQLHSMVDEEAKFSYGDKKIHGRTEAIKQLVRRREEMRWDVQIKDMEVHNGRIEVDARVRFKHNGQPDDQKVVFRAVIHNGRFKMISEQYQP”, for which the protease stability score came out at 0.376.

As for “EEHLQERLTKLNEAEQKGDPKKILEQVDPNARVEVGDKTYHGMDRYARRVAKEMNEMRVEVHIKDLKVRGNNIHAEMSATHTKNGKPSHNEFTLVVVWNNGRVTSIVVTHKS”, the protease stability score worked out at 0.717.

Regarding “EEHLQKTVEEMIKLIRHGNEHKVQENIDPNARIVIGEKRIRGRETFAHLLSKRHKEQRYEVREIKLTVQGEKVKVSMDVVADINGKPIRFSIDMFLHASNGKVKDIQYRISEEQRDKQQG”, the protease stability score was -0.033.

For the sequence “EEHMEDSFRKWKDNLRTNDEKSLEKMADPNATFDVGDKRFRGMHKYVHDLVNTLRSMRVDIKINSIDVQGDKIKARAQATVYHNGRPQRYTFSFEIKINNGHIQRLVRKDDQ”, the protease stability score was -0.035.

In turn, “EEHQQKLIEEVLKAMDSGDEDRIKELVDPNAEFHVGDKTWHGMQDWARHVREEVEQIDFTWVNMEIRVKNGTVIMKARFEETRDGQPRTQNVNLRARVHNGRLTSMENDQHG” showed a protease stability score of 0.375.

For the sequence “EEHQTKEWSKMLEVMTKGDKDKFRERADPNVRARVGDRTLHGWENVVRTELRRQHEISIDIHEMDVRSEGDKVVARYEFRQNQNGRPRRRDVTVTFRLHNGRLQEQHVQDTG”, the protease stability score is 0.148.

Regarding “EEHVKHIVDQLIKVLQHNDEKLWERLVDPNAEIRVGDKSIRGRERFSEEVRRQKHQARMQWKSVQVDVHGDKAVLHFSAEFQVNGQPADFDVTMHIQVHNGTVKRMFVQVPEKDVQRKTS”, the protease stability score stood at 0.459.

On to “EEHVLTRFNSNMSNNNFNHIRDMADENAKMRVGDQEYHGRDNIHRLLEELKTQADHIQVRDYNHRGEHVHVDVEMVINGQKLVARWHAEIKNGRIKEMVLQFTNEEQEKTVRKALR”, for which the protease stability score stood at 0.302.

As for “EEHVMRIVTNQLEAIKHGDEDRVRDLADPNARFHVGDKSIHGMEKYANDLRSEMEHMQVEFNLQSVTVEGDKVVITFEAQFNQNGKPKNYREVFRVEAQGDKIKDYRQERKD”, the protease stability score stood at 0.001.

“EEKAEELVERFITAIETNDPDEVVNNIDPNARLRVGDKHVSGRDHQRQQVEEQERHMRVKYQHVRIDVTGDHARVHVVQVDNHNGKPRRFKYSASFVVQGDKIKHASQTTTE”: the protease stability score was -0.163.

Regarding “EEKATRIAHELLSAVERGDEDRAEENFDENAQFQVGDKDIHGREQMKHFVKTVKEQSRLDMHITDVQDRPGHANVKATAREDNNGNPNNIRITMRASVSNGRIQSMQINYTD”, the protease stability score was -0.638.

Sequence “EEKIVDILERMVTALHTGDPDTVHENLDPNAHVVIGDKEFTGMDTMHRTLERQKKEIRIQINSYSVHAQGNKADIDIDMVNEHNGHPDRNRYRVDAKVHNGKIKQVRYEEVS” returned a protease stability score of -0.38.

On to “EEKLEEQVEELLKNLDTGDENRARQLADPNVRARVGDKEYHGMEQFIKDQMDQRRNARIEVKDLRSEHHGDKITVDLSYKAQHNGRPTTVQREVTFHAHNGKFRQMKIEQSG”, for which the protease stability score was -0.521.

“EEKLRERIKKFIDIMQTGNPEELEKQADEDAHFEIGEKRVHGMDDYAKEVQRELEDAQVRINVDSVRASNGRVEAHATMSETRNGQPRTAELKLEAQFHNGRIKHVRLHKHQ”: the protease stability score was -0.059.

“EEKNQEHAEQVFRAYKDGDPNQIQRLLDPNAHARIGDKQLHGREQAREIMHRLRRHLQMDLKLQDVKAEGDKLQLNARAKHDDNGRPNDVKITITFDLQNGRIKSMSVKMSG” had a protease stability score of 0.022.

“EEKNQHVAQQWLEMVQNGDPRKAKQQFDKDARVKIGDKELNGREEIVRQFEREQREMRVDIKDYKIDVNGDKVTVRLHVEVQSNGTPTTRDYVVHMQVHNGRVQMVIFRSDG” yielded a protease stability score of 0.747.

In the case of “EEKNRKVFEEAMKAFQTNDKDQAERMFDENATVKIGDQEIHGNKQIREHIRTMEEHMRLEIKSIDLKVSNGRVHANITFVEEHNGEPKTLRLHVRAEVDNGTIESMQFNDDG”, the protease stability score was found to be 0.159.

“EEKQDTRLEEFVSAVLKGDEQEAVDLADPNADMHIGEWHVRGREQIRKFIDQLRKRIRVQVDEMHVDNQGENVTVRATFVLDHNGVPMEFEIEYRLVVDNGRLKSVHARVPEEVKNRRRR” came in with a protease stability score of 0.294.

For the sequence “EEKQKTHVERFIEILREGDPQKAREMADKDAKFVYGDKSVHGMDEFRRQVERRNKQIHIDLKVREVDVHGNNVKIIIDAQEDHNGNPDSFKADMEVVYHNGRIKSASMDKQT”, the protease stability score was 0.074.

As to “EENEVEKIMQVAHSGDFDSLVELADPNVTIKVGDKEWHGREHATEFFEKMKRHIDHVDVKSMSAQGDKITVRAHFNVNGDTLDFNLHIVISNGRIQSVKIQVTSHELRKTLTDQLG”, the protease stability score stood at 1.44.

The sequence “EENNLELAHRVMENIQTNNPDEVVKQLDPNARIQVGDKVYHGREQARKMVEDLIDRLRVQIDSVDLEVQGDKAQLEFTQIEEHNGRPNSAKFIVDVTVHNGRVQNMEFREHK” returned a protease stability score of 0.891.

Take “EEQAQENLENLIRAIEHGDHKTAKELMDPNVKFHYGDKQYHGRERVTDFIRTVHEQMDVEIESFDLKLENGRAKAKMTAVYDVNGKPVKISVTYVATVHNGKVKHLQRRVDPSQQREVKG”: the protease stability score is 1.02.

For the sequence “EEQAVEVMNRYIRALQTGSKQDLRDNMDPNVKAIYGDSVIHGREEIARHLVKTMKDIRVENDVRDMRFDGDKIELRAKWVFEHDGRPRTNKYVVHAVAHDGKIKHINLQEDQ”, the protease stability score was -0.058.

In the case of “EEQLKHRLRTYIEALQTGDEKKMVEMVDPNAHIRVGDSTIHGREELRKWVQHLQREIRFQVKIRSIDVSGEHLDVKAEVRYDFNGQPVRDTLNISAEASNGTFTDLRLHIDEDVLRKIKS”, the protease stability score was 1.16.

For the sequence “EEQVEELMHRIMTAIKTNNPDDLKRNIDPNAKIRIGDTVIHGMEEYVHQFEEEVKQLRIEIIDVQQDIKGDKVVVKIRFRRQHNGRPDETVTVFTAKMDNGKVKSLDFQEDG”, the protease stability score was determined as 1.22.

As to “EEQVRELLRKALEAKQEGDEKKLTKLFDPNAKVDVGDKTFHGMEDIARTIVTELKQIRVRLEIKHYSMRGDHLRVDAEVEEEHNGEPQTRRVIIYMHVQGDKITKQKIEDRQ”, the protease stability score amounted to 1.08.

As for “EERANDAARRFLEAIDRNNPDEAVKNFDPNARFRYGDKTVTGRTEVQELLEHLLKQMRITIQSVRVDARGDKVTVHLTVVVDVNGQPERHEMTVIANIHNGRIKEMEVRVDPDEQRERKR”, the protease stability score was determined as 0.575.

Turning to “EERDEAENAIRRFLEAVEEGDEDNLREQADPNAKFDVGDKTVHGMKSYARQQIEERERIDHVDYRISSVRLEGNRADVKVKFKARVDGRTKTATATINMQRHNGRMKIKEMKIN”, the protease stability score amounted to 0.018.

Consider “EERDMEKMDTLVRDNDWKKMKNNVDPNAQVRIGEHEYTGKQQASTAFDILQKQVDHVDIHSFKNHGDQVEVHAILRYNGQNFQVNFRFRVHNGRFKKFSVEFTSEQQNKIMEEWLG”, for which the protease stability score is -0.039.

Source of the values: the NTF2 design screens of Basanta et al. (2020).
